Data published in patent US20220089722A1 (NANTONG YICHEN BIOPHARMA, published 2022).

Target: T1, CD19 on NALM-6 cells (UniProt P15391 20-556, limits assumed)
T1 sequence (looked up): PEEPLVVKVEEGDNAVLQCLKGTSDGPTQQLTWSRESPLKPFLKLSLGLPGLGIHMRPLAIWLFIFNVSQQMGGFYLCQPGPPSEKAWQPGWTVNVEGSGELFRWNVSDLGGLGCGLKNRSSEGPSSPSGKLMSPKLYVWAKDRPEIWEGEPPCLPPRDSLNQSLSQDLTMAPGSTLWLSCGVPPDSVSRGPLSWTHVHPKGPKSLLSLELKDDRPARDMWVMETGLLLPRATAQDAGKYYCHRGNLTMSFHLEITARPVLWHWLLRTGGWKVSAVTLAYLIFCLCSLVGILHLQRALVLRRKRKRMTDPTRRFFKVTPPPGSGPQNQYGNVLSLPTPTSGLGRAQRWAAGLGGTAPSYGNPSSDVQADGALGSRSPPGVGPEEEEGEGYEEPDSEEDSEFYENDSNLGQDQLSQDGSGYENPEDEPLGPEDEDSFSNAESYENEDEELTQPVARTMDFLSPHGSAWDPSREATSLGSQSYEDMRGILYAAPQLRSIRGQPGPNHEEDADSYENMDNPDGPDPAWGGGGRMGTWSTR
Assay: cell-based or functional assay

B1: IgFD-7(anti-CD19/CD3) (bispecific antibody, human IgG1, kappa)
chain 1: EVQLVESGGGLVQPGGSLRLSCAASGFTFNTYAMNWVRQAPGKGLEWVARIRSKYNNYATYYADSVKDRFTISRDDSKNTLYLQMNSLRAEDTAVYYCVRHGNFGNSYVSWFAYWGQGTLVTVSSASTKGPSVFPLAPSSKSTSGGTAALGCLVKDYFPEPVTVSWNSGALTSGVHTFPAVLQSSGLYSLSSVVTVPSSSLGTQTYICNVNHKPSNTKVDKKVEPKSCDKTHTCPPCPAPPVAGPSVFLFPPKPKDTLMISRTPEVTCVVVDVSHEDPEVKFNWYVDGVEVHNAKTKPREEQYNSTYRVVSVLTVLHQDWLNGKEYKCKVSNKGLPSSIEKTISKAKGQPREPQVYTLPPSRDELTKNQVSLTCLVKGFYPSDIAVEWESNGQPENNYKTTPPVLDSDGSFFLYSKLTVDKSRWQQGNVFSCSVMHEALHNHYTQKSLSLSPGK
chain 2: QAVVTQEPSLTVSPGGTVTLTCRSSTGAVTTSNYANWVQQKPDHLFRGLIGGTNKRAPGTPARFSGSLLGDKAALTISGAQPEDEAEYYCALWYSNLWVFGGGTKLTVLKRTVAAPSVFIFPPSDEQLKSGTASVVCLLNNFYPREAKVQWKVDNALQSGNSQESVTEQDSKDSTYSLSSTLTLSKADYEKHKVYACEVTHQGLSSPVTKSFNRGECDKTHTCPPCPAPPVAGPSVFLFPPKPKDTLMISRTPEVTCVVVDVSHEDPEVKFNWYVDGVEVHNAKTKPREEQYNSTYRVVSVLTVLHQDWLNGKEYKCKVSNKGLPSSIEKTISKAKGQPREPQVYTLPPSRDELTKNQVSLTCLVKGFYPSDIAVEWESNGQPENNYKTTPPVLDSDGSFFLYSKLTVDKSRWQQGNVFSCSVMHEALHNHYTQKSLSLSPGKSGGGGSGGGGSGGGGSDIQMTQTTSSLSASLGDRVTISCRASQDISKYLNWYQQKPDGTVKLLIYHTSRLHSGVPSRFSGSGSGTDYSLTISNLEQEDIATYFCQQGNTLPYTFGGGTKLEITGGGGSGGGGSGGGGSEVKLQESGPGLVAPSQSLSVTCTVSGVSLPDYGVSWIRQPPRKGLEWLGVIWGSETTYYNSALKSRLTIIKDNSKSQVFLKMNSLQTDDTAIYYCAKHYYYGGSYAMDYWGQGTSVTVSS
- Promotion for the specific killing effect of PBMCs on target cells by heterodimers (EC50, pM); Nalm-6 cells: 11.7 pM

B2: IgFD-6(anti-CD19/CD3) (bispecific antibody, human IgG1, kappa)
chain 1: EVQLVESGGGLVQPGGSLRLSCAASGFTFNTYAMNWVRQAPGKGLEWVARIRSKYNNYATYYADSVKDRFTISRDDSKNTLYLQMNSLRAEDTAVYYCVRHGNFGNSYVSWFAYWGQGTLVTVSSASTKGPSVFPLAPSSKSTSGGTAALGCLVKDYFPEPVTVSWNSGALTSGVHTFPAVLQSSGLYSLSSVVTVPSSSLGTQTYICNVNHKPSNTKVDKKVEPKSCDKTHTCPPCPAPPVAGPSVFLFPPKPKDTLMISRTPEVTCVVVDVSHEDPEVKFNWYVDGVEVHNAKTKPREEQYNSTYRVVSVLTVLHQDWLNGKEYKCKVSNKGLPSSIEKTISKAKGQPREPQVYTLPPSRDELTKNQVSLTCLVKGFYPSDIAVEWESNGQPENNYKTTPPVLDSDGSFFLYSKLTVDKSRWQQGNVFSCSVMHEALHNHYTQKSLSLSPGKSGGGGSGGGGSGGGGSDIQMTQTTSSLSASLGDRVTISCRASQDISKYLNWYQQKPDGTVKLLIYHTSRLHSGVPSRFSGSGSGTDYSLTISNLEQEDIATYFCQQGNTLPYTFGGGTKLEITGGGGSGGGGSGGGGSEVKLQESGPGLVAPSQSLSVTCTVSGVSLPDYGVSWIRQPPRKGLEWLGVIWGSETTYYNSALKSRLTIIKDNSKSQVFLKMNSLQTDDTAIYYCAKHYYYGGSYAMDYWGQGTSVTVSS
chain 2: QAVVTQEPSLTVSPGGTVTLTCRSSTGAVTTSNYANWVQQKPDHLFRGLIGGTNKRAPGTPARFSGSLLGDKAALTISGAQPEDEAEYYCALWYSNLWVFGGGTKLTVLKRTVAAPSVFIFPPSDEQLKSGTASVVCLLNNFYPREAKVQWKVDNALQSGNSQESVTEQDSKDSTYSLSSTLTLSKADYEKHKVYACEVTHQGLSSPVTKSFNRGECDKTHTCPPCPAPPVAGPSVFLFPPKPKDTLMISRTPEVTCVVVDVSHEDPEVKFNWYVDGVEVHNAKTKPREEQYNSTYRVVSVLTVLHQDWLNGKEYKCKVSNKGLPSSIEKTISKAKGQPREPQVYTLPPSRDELTKNQVSLTCLVKGFYPSDIAVEWESNGQPENNYKTTPPVLDSDGSFFLYSKLTVDKSRWQQGNVFSCSVMHEALHNHYTQKSLSLSPGK
- Promotion for the specific killing effect of PBMCs on target cells by heterodimers (EC50, pM); Nalm-6 cells: 14.9 pM
